Measured values published in patent US20020119139A1, “Cloning and recombinant expression of mammalian group XII secreted phospholipase A2” (priority 2000, published 2002).

B1: hGXII: novel human secreted phospholipase A2 of group XII, mature protein of 167 amino acids (SEQ ID No 2), produced in E. coli (protein)
chain: MALLSRPALTLLLLLMAAVVRCQEQAQTTDWRATLKTIRNGVHKIDTYLNAALDLLGGEDGLCQYKCSDGSKPFPRYGYKPSPPNGCGSPLFGVHLNIGIPSLTKCCNQHDRCYETCGKSKNDCDEEFQYCLSKICRDVQKTLGLTQHVQACETTVELLFDSVIHLGCKPYLDSQRAACRCHYEEKTDL
B2: hGIIA: human group IIA secreted phospholipase A2, used as literature comparator (protein, UniProt P14555 21-144, looked up)
Phospholipase A2, membrane …: NLVNFHRMIKLTTGKEAALSYGFYGCHCGVGGRGSPKDATDRCCVTHDCCYKRLEKRGCGTKFLSYKFSNSGSRITCAKQDSCRSQLCECDKAAATCFARNKTTYNKKYQYYSNKHCRGSTPRC

Assays:
[1] = Ca2+ dependency of the initial velocity of hydrolysis of POPC vesicles; type: biochemical; conditions: POPC vesicles with 1-palmitoyl-2-[8,9-3H]palmitoyl-sn-glycero-3-phosphocholine
Protocol: (§1) FIG. 3 represents the enzymatic properties of hGXII. […] Additional assay details have been reported elsewhere (18).
(§2) Large unilamellar vesicles (0.1 μm) of POPC, POPG, and POPS (31) were used to measure the initial rates of hydrolysis by hGXII in Hank's balanced salt solution with 1.2 mM CaCl2 and 0.9 mM MgCl2 using the fatty acid binding protein assay (17). The pH-rate profile and Ca^2+ dependency for the action of hGXII on POPG and POPC vesicles, respectively, were obtained as described (17).

[2] = pH-rate profile of hydrolysis of POPG vesicles; type: biochemical
Protocol: as §1, §2

[3] = Initial rates of hydrolysis of large unilamellar vesicles, fatty acid binding protein assay; type: biochemical
Protocol: as §1, §2

[4] = sPLA2 activity assay using radiolabeled E. coli membranes; type: biochemical; conditions: recombinant protein from E. coli; also active on POPG, POPS and POPC vesicles
Excerpt: (§3) A mammalian expression vector containing the full-length hGXII cDNA was first used to transiently transfected HEK293 cells. […] Mass spectrometry analysis gave an experimental mass of 18,702.6±0.5 Da, which agrees well with the mass of 18,702.1 Da calculated from the sequence of mature hGXII shown in FIG. 1A.
The decrease as the pH is lowered presumably reflects, in part, the protonation of the active site histidine. As for all mammalian sPLA2s examined so far, the enzymatic activity of hGXII on phosphatidylglycerol vesicles is highest (FIG. 3C), which probably reflects the tighter binding of hGXII to anionic vesicles (37). Although hGXII hydrolyzes POPC at only ˜7% of the rate of POPG, this difference is small compared to the greater than 10^5-fold preference of hGIIA for POPG versus POPC (18).

[5] = sPLA2 activity secreted into culture medium of transiently transfected HEK293 cells; type: cell-based; conditions: 1-5 days after transfection
Excerpt: as §3

[6] = from reference (18); cited from earlier work

Molecule | Kca (Ca2+ dependence of sPLA2 activity toward POPC vesicles) [1] | pH of maximal activity [2] | POPS as substrate ([3]; POPS vesicles) | specific enzymatic activity compared to other mammalian sPLA2s ([3]; compared to hGIB, hGIIA, hGV, hGX, comparable to mGIIE) | enzymatic activity on phosphatidylglycerol vesicles ([3]; compared with POPC and POPS vesicles) | rate of POPC hydrolysis as % of the rate of POPG ([3]; large unilamellar vesicles (0.1 μm), Hank's balanced salt solution, 1.2 mM CaCl2, 0.9 mM MgCl2) | sPLA2 catalytic activity [4] | sPLA2 activity secreted into the culture medium versus cells transfected with vector lacking the insert [5] | preference for POPG versus POPC [6]
B1 | 30 ± 10 µM | ~8.0 | good substrate | low | highest | ~7% | catalytically active | barely above | 
B2 |  |  |  |  |  |  |  |  | greater than 10^5 fold
